Measurements as given in PMC10340464, “Identification of a Novel SSTR3 Full Agonist for the Treatment of Nonfunctioning Pituitary Adenomas” (Cancers, 2023).
Numbered stars: 1 amine (or outer) side, 2 acyl side, 3 side chain; on linkers, the order of the positions; unused ones are H or OH. Square brackets hold non-standard residues; d marks the D form. Side chains are listed from the residue outwards. Peptide text beside a SMILES is read from it. * marks the point of attachment. Ethylenediamine = C(CN[*:2])N[*:1]; Hyp = O=C(O)[C@@H]1C[C@@H](O)CN1; Phg = N[C@H](C(=O)O)c1ccccc1; CO = O=C([*:1])[*:2]; Bn = c1ccc(C*)cc1

Tests used:
[1] = species, matrix, method and reference not given; cited from earlier work
[2] = biological target: human somatostatin receptor 5 (human) (UniProt P35346)
[3] = biological target: human somatostatin receptor 3 (human) (UniProt P32745)
[4] = biological target: human somatostatin receptor 3 (human) (UniProt P32745); assay: radioligand binding; competition with 3-[125I]iodotyrosyl11 somatostatin-14 on membrane extracts of CHO-K1 cells expressing the human receptor; agonist 10^-11 to 3 x 10^-7 M, n = 2; 60 min at 25 °C, filtered and counted
[5] = biological target: human somatostatin receptor 5 (human) (UniProt P35346); assay: as above
[6] = biological target: human somatostatin receptor 1 (human) (UniProt P30872); assay: as above
[7] = biological target: human somatostatin receptor 2 (human) (UniProt P30874); assay: as above
Chain of human somatostatin receptor 2 (human) (P30874 whole entry): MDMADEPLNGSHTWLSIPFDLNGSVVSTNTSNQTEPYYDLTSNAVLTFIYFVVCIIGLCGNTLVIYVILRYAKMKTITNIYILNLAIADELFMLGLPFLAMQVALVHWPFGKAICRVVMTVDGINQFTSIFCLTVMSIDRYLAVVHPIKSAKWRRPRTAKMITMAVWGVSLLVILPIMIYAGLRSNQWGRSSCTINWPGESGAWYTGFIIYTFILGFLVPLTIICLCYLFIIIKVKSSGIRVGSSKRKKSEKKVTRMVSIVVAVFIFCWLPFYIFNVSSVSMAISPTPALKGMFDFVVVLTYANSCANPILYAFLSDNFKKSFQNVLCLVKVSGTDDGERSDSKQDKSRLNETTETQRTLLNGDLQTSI

Chain of human somatostatin receptor 5 (human) (P35346 whole entry): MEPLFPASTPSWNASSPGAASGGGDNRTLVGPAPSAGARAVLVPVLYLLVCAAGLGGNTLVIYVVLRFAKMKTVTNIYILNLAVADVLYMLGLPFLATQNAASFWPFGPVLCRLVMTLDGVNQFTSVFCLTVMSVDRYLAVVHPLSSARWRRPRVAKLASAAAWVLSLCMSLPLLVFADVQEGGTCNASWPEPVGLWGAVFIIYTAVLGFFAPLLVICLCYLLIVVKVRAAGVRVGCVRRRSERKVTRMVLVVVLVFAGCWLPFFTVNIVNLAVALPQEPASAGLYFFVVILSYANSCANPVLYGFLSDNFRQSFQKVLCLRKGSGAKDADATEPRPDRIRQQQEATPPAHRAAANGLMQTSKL
Chain of human somatostatin receptor 3 (human) (P32745 whole entry): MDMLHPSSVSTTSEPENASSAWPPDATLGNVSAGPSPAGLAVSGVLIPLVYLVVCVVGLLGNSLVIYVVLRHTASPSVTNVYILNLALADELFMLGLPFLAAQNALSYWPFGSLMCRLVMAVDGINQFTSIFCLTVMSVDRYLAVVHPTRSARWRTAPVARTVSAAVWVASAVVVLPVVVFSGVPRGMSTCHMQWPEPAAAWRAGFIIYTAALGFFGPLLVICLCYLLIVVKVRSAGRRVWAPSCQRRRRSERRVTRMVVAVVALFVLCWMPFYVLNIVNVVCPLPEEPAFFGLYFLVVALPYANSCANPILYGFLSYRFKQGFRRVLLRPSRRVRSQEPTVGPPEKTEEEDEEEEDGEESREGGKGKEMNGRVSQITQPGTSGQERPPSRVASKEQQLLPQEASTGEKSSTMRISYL
Chain of human somatostatin receptor 1 (human) (P30872 whole entry): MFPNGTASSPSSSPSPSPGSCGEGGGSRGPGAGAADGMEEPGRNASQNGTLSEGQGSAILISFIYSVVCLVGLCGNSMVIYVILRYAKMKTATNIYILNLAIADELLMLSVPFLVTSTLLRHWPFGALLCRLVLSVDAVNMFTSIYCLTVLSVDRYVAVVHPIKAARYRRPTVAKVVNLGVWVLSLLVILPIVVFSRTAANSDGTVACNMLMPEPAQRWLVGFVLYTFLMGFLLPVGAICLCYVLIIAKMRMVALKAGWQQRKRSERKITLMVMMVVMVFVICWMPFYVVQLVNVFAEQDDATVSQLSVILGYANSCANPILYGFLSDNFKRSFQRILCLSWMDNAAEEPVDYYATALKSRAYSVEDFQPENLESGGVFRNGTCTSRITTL

**Q.** For C[C@H](N)C(=O)NCC(=O)N[C@H]1CSSC[C@@H](C(=O)O)NC(=O)[C@H](CO)NC(=O)[C@H]([C@@H](C)O)NC(=O)[C@H](Cc2ccccc2)NC(=O)[C@H]([C@@H](C)O)NC(=O)[C@H](CCCCN)NC(=O)[C@H](Cc2c[nH]c3ccccc23)NC(=O)[C@H](Cc2ccccc2)NC(=O)[C@H](Cc2ccccc2)NC(=O)[C@H](CC(N)=O)NC(=O)[C@H](CCCCN)NC1=O [SST-14], which Half-time life [1] is on record?
**A.** 2.5 min

**Q.** With CSCC[C@H](NC(=O)[C@H](C)NC(=O)[C@@H]1CCCN1C(=O)[C@H](CC(N)=O)NC(=O)[C@H](CO)NC(=O)[C@H](CC(N)=O)NC(=O)[C@H](C)NC(=O)[C@@H](N)CO)C(=O)N[C@@H](C)C(=O)N1CCC[C@H]1C(=O)N[C@@H](CCCNC(=N)N)C(=O)N[C@@H](CCC(=O)O)C(=O)N[C@@H](CCCNC(=N)N)C(=O)N[C@@H](CCCCN)C(=O)N[C@@H](C)C(=O)NCC(=O)N[C@H]1CSSC[C@@H](C(=O)O)NC(=O)[C@H](CO)NC(=O)[C@H]([C@@H](C)O)NC(=O)[C@H](Cc2ccccc2)NC(=O)[C@H]([C@@H](C)O)NC(=O)[C@H](CCCCN)NC(=O)[C@H](Cc2c[nH]c3ccccc23)NC(=O)[C@H](Cc2ccccc2)NC(=O)[C@H](Cc2ccccc2)NC(=O)[C@H](CC(N)=O)NC(=O)[C@H](CCCCN)NC1=O [SST-28] as the molecule, how does the Half-time life [1] read?
**A.** 2.0 min

**Q.** For Octreotide (peptide), which receptor internalization in U2OS cells transfected with SSTR5-tGFP, 10^-9 to 10^-5 M, 7 h; the cell gives 10^-5 M (10^-6 M) (% of activity) [2] is on record?
**A.** 39.3

**Q.** Which Half-time life [1] does the source give for C[C@@H](O)[C@@H]1NC(=O)[C@H](CCCCN)NC(=O)[C@@H](Cc2c[nH]c3ccccc23)NC(=O)[C@H](Cc2ccccc2)NC(=O)[C@@H](NC(=O)[C@H](N)Cc2ccccc2)CSSC[C@@H](C(=O)N[C@H](CO)[C@@H](C)O)NC1=O [Octreotide] here?
**A.** 120 min

**Q.** Which EC50 of GIRK2 channel activation via SSTR3 in transfected HEK293 cells (fluorescence membrane potential assay) [3] does the source give for Pasireotide (peptide) here?
**A.** 63 nM

**Q.** And the receptor internalization in U2OS cells transfected with SSTR3-tGFP, 10^-9 to 10^-5 M, 3 h; the cell gives 10^-5 M (10^-6 M) (% of activity) [3]?
**A.** 46.3

**Q.** What about the EC50 of GIRK2 channel activation via SSTR5 in transfected HEK293 cells (fluorescence membrane potential assay) [2] of the same molecule?
**A.** 16.5 nM

**Q.** And the receptor internalization in U2OS cells transfected with SSTR5-tGFP, 10^-9 to 10^-5 M, 7 h; the cell gives 10^-5 M (10^-6 M) (% of activity) [2]?
**A.** 43.9

**Q.** And the IC50 [4]?
**A.** 2.73 nM

**Q.** And the IC50 [5]?
**A.** 0.37 nM

**Q.** And the IC50 [6]?
**A.** 43.9 nM

**Q.** And the IC50 [7]?
**A.** 5.5 nM

**Q.** For NCCCC[C@@H]1NC(=O)[C@@H](Cc2c[nH]c3ccccc23)NC(=O)[C@H](c2ccccc2)NC(=O)[C@@H]2C[C@@H](OC(=O)NCCN)CN2C(=O)[C@H](Cc2ccccc2)NC(=O)[C@H](Cc2ccc(OCc3ccccc3)cc2)NC1=O [Pasireotide] (cyclo([Hyp]([CO-Ethylenediamine])[Phg][dW]KY(Bn)F)), which Half-time life [1] is on record?
**A.** 1080 min
